Measurements taken from PMC5849602.
Residue numbers refer to the chain shown, from its start. Names and notes keep the numbering of the source. Values belong to the binder of their own block, whether it stands above or below them. The star is where a group is joined. AFC = O=c1cc(C(F)(F)F)c2ccc(N*)cc2o1

Experiments:
[1] = substrate: ΔN D179 CT version of Casp6-WT (human) (UniProt P55212); assay: thermal shift assay (SYPRO Orange); 10 μM Casp6 with or without 50 μM Ac-VEID-CHO, 20 mM Tris pH 8.5, 5 mM DTT, 5x SYPRO Orange, 25 to 95 °C; ΔTm = Tm with minus Tm without Ac-VEID-CHO
[2] = target: co-expressed Casp6-R65W large and small subunits (human); assay: as above
[3] = target: T1, recombinant Casp6-R65W (from full-length Casp6-His) (human) (UniProt P55212)
T1 sequence: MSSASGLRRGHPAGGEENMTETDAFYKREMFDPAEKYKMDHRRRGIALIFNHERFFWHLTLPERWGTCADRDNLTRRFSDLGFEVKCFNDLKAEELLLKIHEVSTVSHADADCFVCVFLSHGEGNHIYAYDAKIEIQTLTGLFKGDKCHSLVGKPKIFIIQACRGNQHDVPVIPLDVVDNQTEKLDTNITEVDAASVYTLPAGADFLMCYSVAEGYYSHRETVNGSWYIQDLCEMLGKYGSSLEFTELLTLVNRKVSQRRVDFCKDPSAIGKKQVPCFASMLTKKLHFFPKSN

[4] = target: T2, recombinant Casp6-WT (from full-length human Casp6-WT-6xHis-tag-C-terminus) (human) (UniProt P55212)
T2 sequence: T1 sequence with W65R

[5] = target: T3, Casp6-WT lacking its pro-domain (∆Casp6-WT) (human) (UniProt P55212)
T3 sequence: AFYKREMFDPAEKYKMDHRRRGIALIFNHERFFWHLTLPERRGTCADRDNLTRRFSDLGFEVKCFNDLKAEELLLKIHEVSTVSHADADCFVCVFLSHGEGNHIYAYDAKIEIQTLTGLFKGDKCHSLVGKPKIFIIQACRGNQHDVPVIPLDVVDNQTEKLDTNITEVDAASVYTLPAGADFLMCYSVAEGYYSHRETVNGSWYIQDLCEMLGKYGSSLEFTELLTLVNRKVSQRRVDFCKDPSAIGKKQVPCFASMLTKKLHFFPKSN

increase of melting temperature with Ac-VEID-CHO (ΔTm) [1]: 7 °C | increase of melting temperature with Ac-VEID-CHO (ΔTm) [2]: 4.6 °C
Binder: Ac-VEID-aldehyde [Ac-VEID-CHO]

KM of Ac-VEID-AFC cleavage (Michaelis-Menten fit; 20 nM Casp6, 1-300 µM Ac-VEID-AFC) [3]: 102 µM | KM of Ac-VEID-AFC cleavage (Michaelis-Menten fit; 20 nM Casp6, 1-300 µM Ac-VEID-AFC) [4]: 39.1 µM
B1: Ac-Val-Glu-Ile-Asp-7-Amino-4-trifluoromethylcoumarin (peptide)
peptide: Ac-VEID-{AFC}
SMILES: CC[C@H](C)[C@H](NC(=O)[C@H](CCC(=O)O)NC(=O)[C@@H](NC(C)=O)C(C)C)C(=O)N[C@@H](CC(=O)O)C(=O)Nc1ccc2c(C(F)(F)F)cc(=O)oc2c1

reduction of the VEIDase activity (40 µM Ac-VEID-AFC) of Casp3-processed ∆Casp6-WT (0.02 mg/ml) on addition of proCasp6-G66R (0.02-0.06 mg/ml, ratios 1:1 to 3:1), not dose-dependent [5]: 30%
B2: recombinant proCasp6-G66R (from full-length Casp6-His) (enzyme)
chain: T1 sequence with W65R, G66R
